The chains are these.
B1: Vorhyaluronidase Alfa (recombinant human hyaluronidase rHuPH20) (enzyme, UniProt P38567 36-482, looked up)
chain: LNFRAPPVIPNVPFLWAWNAPSEFCLGKFDEPLDMSLFSFIGSPRINATGQGVTIFYVDRLGYYPYIDSITGVTVNGGIPQKISLQDHLDKAKKDITFYMPVDNLGMAVIDWEEWRPTWARNWKPKDVYKNRSIELVQQQNVQLSLTEATEKAKQEFEKAGKDFLVETIKLGKLLRPNHLWGYYLFPDCYNHHYKKPGYNGSCFNVEIKRNDDLSWLWNESTALYPSIYLNTQQSPVAATLYVRNRVREAIRVSKIPDAKSPLPVFAYTRIVFTDQVLKFLSQDELVYTFGETVALGASGIVIWGTLSIMRSMKSCLLLDNYMETILNPYIINVTLAAKMCSQVLCQEQGVCIRKNWNSSDYLHLNPDNFAIQLEKGGKFTVRGKPTLEDLEQFSEKFYCSCYSTLSCKEKADVKDTDAVDVCIADGVCIDAFLKPPMETEEPQIFY
notes: Also the only protein in the two rHuPH20-containing formulation buffers tested as samples; also called rHuPH20-Containing FDC LD Formulation Buffer; rHuPH20-Containing FDC MD Formulation Buffer
B3: Pertuzumab coat reagent: recombinant HER2 extracellular domains I, II, III fused to a murine Fc; domain IV (containing the trastuzumab epitope) is depleted (Fc fusion)
chain: KYALADASLKMADPNRFRGKDLPVLDQLLESTQVCTGTDMKLRLPASPETHLDMLRHLYQGCQVVQGNLELTYLPTNASLSFLQDIQEVQGYVLIAHNQVRQVPLQRLRIVRGTQLFEDNYALAVLDNGDPLNNTTPVTGASPGGLRELQLRSLTEILKGGVLIQRNPQLCYQDTILWKDIFHKNNQLALTLIDTNRSRACHPCSPMCKGSRCWGESSEDCQSLTRTVCAGGCARCKGPLPTDCCHEQCAAGCTGPKHSDCLACLHFNHSGICELHCPALVTYNTDTFESMPNPEGRYTFGASCVTACPYNYLSTDVGSCTLVCPLHNQEVTAEDGTQRCEKCSKPCARVCYGLGMEHLREVRAVTSANIQEFAGCKKIFGSLAFLPESFDGDPASNTAPLQPEQLQVFETLEEITGYLYISAWPDSLPDLSVFQNLQVIRGRILHNGAYSLTLQGLGISWLGLRSLRELGSGLALIHHNTHLCFVHTVPWDQLFRNPHQALLHTANRPEDECVRRAQVTDKKIEPRGPTIKPCPPCKCPAPNLLGGPSVFIFPPKIKDVLMISLSPIVTCVVVDVSEDDPDVQISWFVNNVEVHTAQTQTHREDYNSTLRVVSALPIQHQDWMSGKEFKCKVNNKDLPAPIERTISKPKGSVRAPQVYVLPPPEEEMTKKQVTLTCMVTDFMPEDIYVEWTNNGKTELNYKNTEPVLDSDGSYFMYSKLRVEKKNWVERNSYSCSVVHEGLHNHHTTKSFSRTPGK
notes: also called P-HER2 variant; capture reagent of the pertuzumab ELISA
B4: PEG-Filgrastim (other, UniProt P09919-2 31-204, looked up)
chain: TPLGPASSLPQSFLLKCLEQVRKIQGDGAALQEKLCATYKLCHPEELVLLGHSLGIPWAPLSSCPSQALQLAGCLSQLHSGLFLYQGLLQALEGISPELGPTLDTLQLDVADFATTIWQQMEELGMAPALQPTQGAMPAFASAFQRRAGGVLVASHLQSFLEVSYRVLRHLAQP
modifications: pegylated; site not stated
notes: Specificity control
B5: Filgrastim (other, UniProt P09919-2 31-204, looked up)
chain: TPLGPASSLPQSFLLKCLEQVRKIQGDGAALQEKLCATYKLCHPEELVLLGHSLGIPWAPLSSCPSQALQLAGCLSQLHSGLFLYQGLLQALEGISPELGPTLDTLQLDVADFATTIWQQMEELGMAPALQPTQGAMPAFASAFQRRAGGVLVASHLQSFLEVSYRVLRHLAQP
notes: Specificity control
B6: Trastuzumab coat reagent: recombinant HER2 extracellular domains I, III, IV fused to a murine Fc; domain II is replaced by structurally related domain II of … (Fc fusion)
chain: KYALADASLKMADPNRFRGKDLPVLDQLLEAASTQVCTGTDMKLRLPASPETHLDMLRHLYQGCQVVQGNLELTYLPTNASLSFLQDIQEVQGYVLIAHNQVRQVPLQRLRIVRGTQLFEDNYALAVLDNGDPLNNTTPVTGASPGGLRELQLRSLTEILKGGVLIQRNPQLCYQDTILWKDIFHKNNQLALTLIDTNRSRACHPCSPMCKGSRCWGESSEDCQKLTKIICAQQCSGRCRGKSPSDCCHNQCAAGCTGPRESDCLVCRKFRDEATCKDTCPPLMLYNPTTYQMDVNPEGKYSFGATCVKKCPRNYVVTDHGSCVRACGADSYEMEEDGVRKCKKCEGPCRKVCYGLGMEHLREVRAVTSANIQEFAGCKKIFGSLAFLPESFDGDPASNTAPLQPEQLQVFETLEEITGYLYISAWPDSLPDLSVFQNLQVIRGRILHNGAYSLTLQGLGISWLGLRSLRELGSGLALIHHNTHLCFVHTVPWDQLFRNPHQALLHTANRPEDECVGEGLACHQLCARGHCWGPGPTQCVNCSQFLRGQECVEECRVLQGLPREYVNARHCLPCHPECQPQNGSVTCFGPEADQCVACAHYKDPPFCVARCPSGVKPDLSYMPIWKFPDEEGACQPCPINCTHSCVDLDDKGCPAEQRRAQVTDKKIEPRGPTIKPCPPCKCPAPNLLGGPSVFIFPPKIKDVLMISLSPIVTCVVVDVSEDDPDVQISWFVNNVEVHTAQTQTHREDYNSTLRVVSALPIQHQDWMSGKEFKCKVNNKDLPAPIERTISKPKGSVRAPQVYVLPPPEEEMTKKQVTLTCMVTDFMPEDIYVEWTNNGKTELNYKNTEPVLDSDGSYFMYSKLRVEKKNWVERNSYSCSVVHEGLHNHHTTKSFSRTPGK
notes: also called T-HER2 variant; capture reagent of the trastuzumab ELISA

The target of assay [1] is B3. Description: pertuzumab ELISA specificity test, highest assay concentration, duplicate, OD(405 nm)-OD(490 nm).
Assay [2] has as its target B6. The experiment in a line: trastuzumab ELISA specificity test, highest assay concentration, duplicate, OD(405 nm)-OD(490 nm).
The target of assay [3] is B6. The experiment in a line: trastuzumab ELISA specificity test; sample Pertuzumab IV.
Assay [4] concerns the target B4. Description: pertuzumab ELISA specificity test. Background: An ELISA detects its analyte on a solid surface through an enzyme-linked reagent.
The target in assay [5] is B5. Description: pertuzumab ELISA specificity test.
Assay [6] addresses B1. The experiment in a line: pertuzumab ELISA specificity test; sample Vorhyaluronidase Alfa.
Assay [7] has as its target B4. The experiment in a line: trastuzumab ELISA specificity test.
For assay [8], the target named is B5. Description: trastuzumab ELISA specificity test.
The target of assay [9] is B1. Description: trastuzumab ELISA specificity test; sample rHuPH20-Containing FDC LD Formulation Buffer.

As for B1, the “OD Mean of Replicates” value in [1] is 0.07 OD; in assay [2], 0.03 OD.

B2: Pertuzumab (antibody, human IgG1, kappa, V domains shown)
VH: EVQLVESGGGLVQPGGSLRLSCAASGFTFTDYTMDWVRQAPGKGLEWVADVNPNSGGSIYNQRFKGRFTLSVDRSKNTLYLQMNSLRAEDTAVYYCARNLGPSFYFDYWGQGTLVTVSS
VL: DIQMTQSPSSLSASVGDRVTITCKASQDVSIGVAWYQQKPGKAPKLLIYSASYRYTGVPSRFSGSGSGTDFTLTISSLQPEDFATYYCQQYYIYPYTFGQGTKVEIKR
notes: also called rhuMAb 2C4; Pertuzumab IV
As for B2, in assay [3], the binding result is on record as “no binding”.
For B3, the binding result (in the assay with PEG-Filgrastim [4]; with Filgrastim [5]; in assay [6]) was “no binding” each time.
Consider B4, for which the “OD Mean of Replicates” value in assay [1] stood at 0.07 OD; in [2], 0.03 OD.
With B5, the entries for the “OD Mean of Replicates” value in assay [1] and in assay [2] were 0.08 OD and 0.04 OD, respectively.
As to B6, the binding result (with PEG-Filgrastim [7]; with Filgrastim [8]; in assay [9]) was “no binding” in each case.

Values taken from US20230314420A1 (Genentech, published 2023).
